Target: JJS-A6/A11 VHH heterodimer, thioredoxin-fused (alpaca (Vicugna pacos))
Assay: far-Western, overlay or dot blot

B1: recombinant Cp-P34 (natural protein)
chain: MSGVSRRAVITDPNGVYEGDVNEKGLKHGNGVYKVNTGDVYEGEYSNGLKNGYGVYTWANGDKFEGYYKDDIKWGHGIYRWSNGEVFEGEYVRGVKCGHGIYTWPNGDRFEGEYKDGVKEGFGVYKLATGRIYEGQYSRDMRNGQGTSRYTDGSVYTGEWFDGKEHGHGLLKFSDSSSYEGDFQNGAPNGQGKYTYSNGNYYVGGFKNGLTDGPGSLTFAEDNRVLKANWKDGQVDGDAAIIYPDGGKYTGEVVNGIRQGKGIMTESNGDIFDGEFFRDFRHGEGILTVNGKQKRVKYNMGKKVGLCSC
percent of VHH binding to the native target blocked by the recombinant protein: 95.2%

— paper PMC8373667
